Article PMC9364112, “A natural fusion of flavodiiron, rubredoxin, and rubredoxin oxidoreductase domains is a self-sufficient water-forming oxidase of Trichomonas vaginalis” (The Journal of Biological Chemistry, 2022)

Assays:
TvFDPF3 (holoTvFDPF3) [1] = biological target: T1, TvFDPF3 (holoTvFDPF3) (Trichomonas vaginalis, UniProt A2E972); assay: anaerobic UV-visible titration, charge-transfer band at […] nm; assay type: binding
T1 construct: gene TVAG_121610; full length, 871 residues, C-terminal His6 (pET30a, E. coli BL21 Star DE3), ~100 kDa on SDS-PAGE; FDP-core head-to-tail dimer; holo preparation with full FAD/FMN
T1 sequence (A2E972 1-871): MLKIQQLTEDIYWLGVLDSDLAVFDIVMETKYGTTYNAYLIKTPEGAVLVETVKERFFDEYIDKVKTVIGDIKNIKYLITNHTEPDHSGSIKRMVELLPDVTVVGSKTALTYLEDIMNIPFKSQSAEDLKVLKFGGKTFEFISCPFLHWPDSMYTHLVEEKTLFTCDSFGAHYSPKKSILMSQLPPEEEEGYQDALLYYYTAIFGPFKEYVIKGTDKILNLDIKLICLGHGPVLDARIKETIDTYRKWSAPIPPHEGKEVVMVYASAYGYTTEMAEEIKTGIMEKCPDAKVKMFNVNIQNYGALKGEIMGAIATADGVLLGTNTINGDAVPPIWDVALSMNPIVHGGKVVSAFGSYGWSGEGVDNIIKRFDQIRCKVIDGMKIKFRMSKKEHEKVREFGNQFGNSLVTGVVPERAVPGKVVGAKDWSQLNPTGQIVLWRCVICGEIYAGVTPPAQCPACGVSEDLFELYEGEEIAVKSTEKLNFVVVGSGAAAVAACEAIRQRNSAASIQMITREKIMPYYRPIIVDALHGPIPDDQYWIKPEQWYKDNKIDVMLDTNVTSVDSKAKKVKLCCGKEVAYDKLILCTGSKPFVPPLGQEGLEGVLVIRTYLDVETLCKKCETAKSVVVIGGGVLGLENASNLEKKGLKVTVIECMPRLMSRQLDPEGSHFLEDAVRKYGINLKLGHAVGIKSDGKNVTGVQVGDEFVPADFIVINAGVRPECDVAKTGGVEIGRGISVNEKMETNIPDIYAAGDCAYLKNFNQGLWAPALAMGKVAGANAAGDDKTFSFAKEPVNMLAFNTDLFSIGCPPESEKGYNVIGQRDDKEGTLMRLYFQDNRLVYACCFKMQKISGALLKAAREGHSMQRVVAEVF

[2] = biological target: class F flavodiiron protein 3 from Trichomonas vaginalis (TvFDPF3) (Trichomonas vaginalis); assay: cryo-EM structure; single-particle cryo-EM of holoTvFDPF3 at 0.8 mg/ml in buffer E (50 mM Hepes-NaOH pH 7.5, 150 mM NaCl); map without symmetry 6.6 Å, C2-symmetric map 6.8 Å; homology models of the domains docked into the density
TvFDPF3 (holoTvFDPF3) [3] = biological target: T1, TvFDPF3 (holoTvFDPF3); assay: LC-MS quantification of bound flavin; assay type: binding; details: co-purified cofactor, FDP domain
Excerpt: LC-MS quantification of bound flavin on TvFDPF3 (holoTvFDPF3)

purified protein [4] = substrate: NC(=O)C1=CN([C@@H]2O[C@H](COP(=O)(O)OP(=O)(O)OC[C@H]3O[C@@H](n4cnc5c(N)ncnc54)[C@H](OP(=O)(O)O)[C@@H]3O)[C@@H](O)[C@H]2O)C=CC1; assay: purified protein; assay type: biochemical, Trichomonas vaginalis; details: O2 of air-saturated buffer, 50 mM Hepes-NaOH pH 7.5, 150 mM NaCl, 37 °C
purified protein [5] = substrate: NC(=O)C1=CN([C@@H]2O[C@H](COP(=O)(O)OP(=O)(O)OC[C@H]3O[C@@H](n4cnc5c(N)ncnc54)[C@H](O)[C@@H]3O)[C@@H](O)[C@H]2O)C=CC1; assay: purified protein; assay type: biochemical, Trichomonas vaginalis; details: O2 of air-saturated buffer, 50 mM Hepes-NaOH pH 7.5, 150 mM NaCl, 37 °C
[6] = preparation with 0.32 FAD and 0.009 FMN per monomer, NAD(P)H tested 0.5-600 μM
[7] = preparation with 0.32 FAD and 0.009 FMN per monomer, kcat per monomer, NAD(P)H tested 0.5-600 μM
[8] = preparation with 0.32 FAD and 0.009 FMN per monomer
[9] = preparation with 0.32 FAD and 0.009 FMN per monomer, kcat per monomer
[10] = holoTvFDPF3 (full FAD and FMN), kcat per monomer
[11] = preparation with about 1% FMN, kcat per monomer, NAD(P)H tested 0.5-600 μM
[12] = preparation with about 1% FMN, kcat per monomer

Molecule `NC(=O)c1ccc[n+]([C@@H]2O[C@H](COP(=O)(O)OP(=O)(O)OC[C@H]3O[C@@H](n4cnc5c(N)ncnc54)[C@H](O)[C@@H]3O)[C@@H](O)[C@H]2O)c1` [NAD^+] has a Kd (TvFDPF3 (holoTvFDPF3) [1]) of ~130 nM.

“class F flavodiiron protein 3 from Trichomonas vaginalis (TvFDPF3) (enzyme)” showed a stoichiometry N [2] of 2.

In the case of `Cc1cc2nc3c(=O)[nH]c(=O)nc-3n(C[C@H](O)[C@H](O)[C@H](O)COP(=O)(O)O)c2cc1C` [FMN], the “FMN per protein monomer” value (TvFDPF3 (holoTvFDPF3) [3]) is reported as 0.92 ± 0.09 mol per mol monomer.

B1: TvFDPF2 (Trichomonas vaginalis G3) (protein)
chain: MLKIQQLTEDIYWLGVLDSNLAVFDIIMETKYGTTYNAYLIKTPEGAVLVETVKETFFDEYIEKVKSVIGDIHKIKYLITNHTEPDHSGSIKKMIELIPDLTVVGSKTALTYLEDIVNIPFKGHSAEDLKVLKFGGKSFEFISCPFLHWPDSMYTWVPEEKTLFTCDSFGAHYSPKKSILMSQLPPEEEEGYQDALLYYYTAIFGPFKEYVIKGTDKILNLDIKLVGLGHGPVLDARIKETIDTYRKWSAPLPTHEGKEVVMVYASAYGYTTEMAEEIKAGILAKIPDAKIKMFNVNIQNYGGLKGEIMNAIATADGVLLGTNTINGDAVPPVWDVALSMNPIVHGGKIVTAFGSYGWSGEGVDNIIARFDQIRCKVIDGCKIKFRMSKKEHGKVNEFGQQFGEALITGKVPERAVPGKVVGAKDWSELNPTGAVVLWRCVICGEIYAGVTPPLQCPACGVGQDLFELYEAEQVTHKSTEPLNYVIVGSGAAAVASIEAIRARNAVAKITMISREKVMPYYRPIIVDALNAEIAPDKYFLKNEEWYKENKIEIKLDTSVTAIDTKAKKVKLCRGDELAYDKLILATGSRPFIPPIGHEGLSGVIVIRTSADVDQLKAACQTAKKAVVIGGGVLGLENASAIKEKGVAVTVVECMPRLMARQLDTEASAVLLEEVKKFGVDVRLGMTVSIKGDGKHVTGVQVGEEFIPADFVVVNAGVRAESEVAAAAGIKCGRGIIVNNKMETNVPDVYAAGDCAFLDNMNQGLWAPALAMGKVAGANACGDNKTFAFAIEPVSMIAMGTDLFACGNPPESAQGYNVVSQKDDKEGSAIKLYFKDNRLVYAAGFRIQKISGSLLKGVREGRSLERIMAEIF
notes: full length, 871 residues, C-terminal His6 (pET30a, E. coli BL21 Star DE3); aggregation-prone; poor FAD and FMN occupancy
Work on B1 yielded a kcat (purified protein [4]; [6]) of 1.7 ± 0.3 s⁻¹, a kcat/Km (purified protein [4]; [6]) of 1400 ± 300 M⁻¹ s⁻¹ and a Km (purified protein [4]; [7]) of 1171 ± 208 µM. For the same molecule, the Vmax (purified protein [4]; [7]) was 1.1 µmol/min/mg, the kcat (purified protein [5]; [8]) was 9.6 ± 0.3 s⁻¹ and the kcat/Km (purified protein [5]; [8]) was 530000 ± 60000 M⁻¹ s⁻¹. For the same molecule, the Km (purified protein [5]; [9]) was 18 ± 2 µM and the Vmax (purified protein [5]; [9]) was 6.1 µmol/min/mg.

B2: TvFDPF3 (holoTvFDPF3) (Trichomonas vaginalis G3) (protein)
chain: T1 sequence (A2E972 1-871)
notes: full length, 871 residues, C-terminal His6 (pET30a, E. coli BL21 Star DE3), ~100 kDa on SDS-PAGE; FDP-core head-to-tail dimer; holo preparation with full FAD/FMN
For B2, the Km (purified protein [4]; [10]) was 427 ± 160 µM, the Vmax (purified protein [4]; [10]) was 11 µmol/min/mg and the kcat (purified protein [4]; [10]) was 18 ± 6 s⁻¹. It also gave a kcat/Km (purified protein [4]; [10]) of 41000 ± 21000 M⁻¹ s⁻¹, a Km (purified protein [5]; [10]) of 56 ± 2 µM and a Vmax (purified protein [5]; [10]) of 291 µmol/min/mg. The kcat (purified protein [5]; [10]) was 466 ± 42 s⁻¹ and the kcat/Km (purified protein [5]; [10]) was 8.3e+06 ± 800000 M⁻¹ s⁻¹.

B3: TvFDPF1 (Trichomonas vaginalis G3) (protein)
chain: MLKIQQLTEDIYWLGALDPTLAVFDIIMETKYGTTYNAYMIKTPAGAVLVETVKECFFEEYIEKVKSVIGDINNIKYLITNHTEPDHSGSIKKIIEIIPGLTVIGSKTALTYLEDIVNIPFRGHSAEDLKALKFGGKTFEFISCPFLHWPDSMYTWLPEEQALFTCDSFGAHYSPKKSILMSELPPEEEDGYQEALLYYYTAIFGPFKDFVIKGTDKILDLDIKIICLGHGPVLDARVQETIDTYRKWSEPALPHPGIEVVMVYASAYGYTTEMAEEIKNGILDKIPDASVKMYNVNIQNYGGMKADIMNSIATADGVLLGTNTINGDAVPPIWDVALSMNPIVHGGKIVTAFGSYGWSGEGVDNIINRFDKIRCKVVEPIKIKFRMSKKEHKQVREFGRRFADCLESGEVPDRAVPGRVVGAKDWSELNPTGAIVLWRCVICGEIYAGVTPPLVCPACGVGQDLFELYEAEEVTCSSFENLKFVVVGSGAAAVSAIDAIRARNTVASITMLTREKIMPYYRPIIVDALNSEISPENYYLKNEDWYTENNITVKLGTTVKSIDTARKSLTLSDGSTMQYDRLILATGSRPFVPPIGHEGLTGVYVIRTSNDVELLKETCKTAKKAVVIGGGVLGLENASAIKDRGLSVTVVECMPRLMARQLDPEASEILQGFVRDYGVDLRMGQCVVIKGDGKKVTGVQVGDEFISADFVVVNAGVRAESEVAAAAGIECSRGITVNNKMETSAQDVYAAGDCAYMENINQGLWAPALAMGKVAGANAAGDSKTFHFSIEPVNMIAMGTDLFAVGIPPDSPKGYNVISQRDEKEGTAIKLYFKDNRLVYAAGFKCQKQSGFLLKGVRNGHTLQHVLAELF
notes: full length, 871 residues, C-terminal His6 (pET30a, E. coli BL21 Star DE3); 272 kDa by gel filtration
Molecule B3 has a Km (purified protein [4]; [11]) of 1475 ± 486 µM, a Vmax (purified protein [4]; [11]) of 4.9 µmol/min/mg and a kcat (purified protein [4]; [11]) of 7.8 ± 3.3 s⁻¹. The kcat/Km (purified protein [4]; [11]) was 5200 ± 2800 M⁻¹ s⁻¹, the Km (purified protein [5]; [12]) was 2.9 ± 0.8 µM and the Vmax (purified protein [5]; [12]) was 4.9 µmol/min/mg. For the same molecule, the kcat (purified protein [5]; [12]) was 7.8 ± 1.9 s⁻¹ and the kcat/Km (purified protein [5]; [12]) was 2.6e+06 ± 900000 M⁻¹ s⁻¹.
